In PMC10477112, “APP-BACE1 Interaction and Intracellular Localization Regulate Aβ Production in iPSC-Derived Cortical Neurons” (Cellular and Molecular Neurobiology, 2023):

Target: T1, APP-derived C-terminal fragment (APP-CTF) (human (endogenous in iPSC-derived NPCs …, UniProt P05067 672-770))
T1 construct: also called C-terminal APP; C-termAPP; source: endogenous, human iPSC-derived NPCs and cortical neurons, fixed cells
Assay: proximity ligation; DuoLink PLA on fixed (4% PFA), permeabilised human iPSC-derived NPCs (day 45) and neurons (day 75); primary antibodies against APP (N-terminal or C-terminal), BACE1 and PSEN1; proximity of maximum 40 nm; PLA dot area divided by nuclear area
Settings: partners not purified

fold PLA colocalization against flAPP/BACE1 in NPCs (calculated): ≥ 6.7 times
B1: BACE1 (beta-secretase) (enzyme, UniProt P56817 46-501, looked up)
chain: ETDEEPEEPGRRGSFVEMVDNLRGKSGQGYYVEMTVGSPPQTLNILVDTGSSNFAVGAAPHPFLHRYYQRQLSSTYRDLRKGVYVPYTQGKWEGELGTDLVSIPHGPNVTVRANIAAITESDKFFINGSNWEGILGLAYAEIARPDDSLEPFFDSLVKQTHVPNLFSLQLCGAGFPLNQSEVLASVGGSMIIGGIDHSLYTGSLWYTPIRREWYYEVIIVRVEINGQDLKMDCKEYNYDKSIVDSGTTNLRLPKKVFEAAVKSIKAASSTEKFPDGFWLGEQLVCWQAGTTPWNIFPVISLYLMGEVTNQSFRITILPQQYLRPVEDVATSQDDCYKFAISQSSTGTVMGAVIMEGFYVVFDRARKRIGFAVSACHVHDEFRTAAVEGPFVTLDMEDCGYNIPQTDESTLMTIAYVMAAICALFMLPLCLMVCQWRCLRCLRQQHDDFADDISLLK
notes: BACE1, human, endogenous; also called β-secretase; source: endogenous, human iPSC-derived NPCs and cortical neurons, fixed cells; endogenous, SH-SY5Y cells, fixed
